Assay results reported in the supplement of paper PMC12783771.
± gives the standard deviation of the averaged measurements.

B1: library; a variant is named by its letters at X, in order (parent)
chain: MNIQIGELAKRTACPVVTIRFYEQEGLLPPPGRSRGNFRLYGEEHVERLQFIRHCRSLDMPLSXVRTLLSYRKRPDQDCGEVXMLLDEHXRQVESRIGALLELXHXLVELREACSGARPAQSCGILQGLSDCVCDTRGTTAHXSD

Columns and labels:
[1] = variants of: B1; experiment: sfGFP reporter fluorescence (15 h) (µM FITC); higher = higher leak; details: library round: Round 3b; ligand: none
Procedure: (§1)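 Cell-free biosensing: 1 µL Echo-assembled CFE reactions with linear PbrR variant templates (5 nM) and pPbrR-sfGFP reporter, with 1 µM Pb, 30 µM Zn or no ligand; endpoint sfGFP fluorescence after 15 h at 30 °C calibrated as µM FITC. Round 3b rational combinatorial PbrR mutants; 3 biological replicates.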

[2] = variants of: B1; experiment: sfGFP reporter fluorescence (15 h) (µM FITC); higher = stronger transcriptional activation; details: library round: Round 3b
Procedure: as §1

Row | Variant | sfGFP reporter fluorescence [1] | sfGFP reporter fluorescence ([2]; ligand: 1 µM Pb) | sfGFP reporter fluorescence ([2]; ligand: 30 µM Zn)
1 | MNIQIGELAKRTACPVVTIRFYEQEGLLPPPGRSRGNFRLYGEEHVERLQFIRHCRSLDMPLSKVRTLLSYRKRPDQDCGEVNMLLDEHIRQVESRIGALLELTHALVELREACSGARPAQSCGILQGLSDCVCDTRGTTAHRSD [KNITAR] | 0.0701 ± 0.0068 | 0.379 ± 0.032 | 1.07 ± 0.19
2 | MNIQIGELAKRTACPVVTIRFYEQEGLLPPPGRSRGNFRLYGEEHVERLQFIRHCRSLDMPLSDVRTLLSYRKRPDQDCGEVIMLLDEHIRQVESRIGALLELTHALVELREACSGARPAQSCGILQGLSDCVCDTRGTTAHRSD [DIITAR] | 0.0463 ± 0.0055 | 0.0691 ± 0.0046 | 0.0465 ± 0.0022
3 | MNIQIGELAKRTACPVVTIRFYEQEGLLPPPGRSRGNFRLYGEEHVERLQFIRHCRSLDMPLSKVRTLLSYRKRPDQDCGEVFMLLDEHIRQVESRIGALLELTHHLVELREACSGARPAQSCGILQGLSDCVCDTRGTTAHRSD [KFITHR] | 0.0496 ± 0.0019 | 0.554 ± 0.021 | 0.25 ± 0.036
4 | MNIQIGELAKRTACPVVTIRFYEQEGLLPPPGRSRGNFRLYGEEHVERLQFIRHCRSLDMPLSKVRTLLSYRKRPDQDCGEVIMLLDEHIRQVESRIGALLELVHELVELREACSGARPAQSCGILQGLSDCVCDTRGTTAHTSD [KIIVET] | 0.0535 ± 0.0022 | 0.346 ± 0.015 | 0.0557 ± 0.0014
5 | MNIQIGELAKRTACPVVTIRFYEQEGLLPPPGRSRGNFRLYGEEHVERLQFIRHCRSLDMPLSDVRTLLSYRKRPDQDCGEVFMLLDEHARQVESRIGALLELKHELVELREACSGARPAQSCGILQGLSDCVCDTRGTTAHTSD [DFAKET] | 0.037 ± 0.0032 | 0.0413 ± 0.00089 | 0.0436 ± 0.0024
6 | MNIQIGELAKRTACPVVTIRFYEQEGLLPPPGRSRGNFRLYGEEHVERLQFIRHCRSLDMPLSDVRTLLSYRKRPDQDCGEVIMLLDEHARQVESRIGALLELKHALVELREACSGARPAQSCGILQGLSDCVCDTRGTTAHRSD [DIAKAR] | 0.0442 ± 0.0031 | 0.0673 ± 0.0063 | 0.045 ± 0.0015
7 | MNIQIGELAKRTACPVVTIRFYEQEGLLPPPGRSRGNFRLYGEEHVERLQFIRHCRSLDMPLSKVRTLLSYRKRPDQDCGEVFMLLDEHIRQVESRIGALLELTHALVELREACSGARPAQSCGILQGLSDCVCDTRGTTAHPSD [KFITAP] | 0.0485 ± 0.0052 | 0.302 ± 0.022 | 0.0642 ± 0.0032
8 | MNIQIGELAKRTACPVVTIRFYEQEGLLPPPGRSRGNFRLYGEEHVERLQFIRHCRSLDMPLSDVRTLLSYRKRPDQDCGEVIMLLDEHARQVESRIGALLELTHHLVELREACSGARPAQSCGILQGLSDCVCDTRGTTAHRSD [DIATHR] | 0.0464 ± 0.003 | 0.0989 ± 0.0066 | 0.0456 ± 0.0036
9 | MNIQIGELAKRTACPVVTIRFYEQEGLLPPPGRSRGNFRLYGEEHVERLQFIRHCRSLDMPLSKVRTLLSYRKRPDQDCGEVNMLLDEHARQVESRIGALLELKHALVELREACSGARPAQSCGILQGLSDCVCDTRGTTAHTSD [KNAKAT] | 0.0671 ± 0.0058 | 0.353 ± 0.02 | 0.795 ± 0.18
10 | MNIQIGELAKRTACPVVTIRFYEQEGLLPPPGRSRGNFRLYGEEHVERLQFIRHCRSLDMPLSDVRTLLSYRKRPDQDCGEVFMLLDEHIRQVESRIGALLELTHALVELREACSGARPAQSCGILQGLSDCVCDTRGTTAHTSD [DFITAT] | 0.0436 ± 0.0017 | 0.0559 ± 0.004 | 0.0439 ± 0.00085
11 | MNIQIGELAKRTACPVVTIRFYEQEGLLPPPGRSRGNFRLYGEEHVERLQFIRHCRSLDMPLSKVRTLLSYRKRPDQDCGEVIMLLDEHARQVESRIGALLELTHELVELREACSGARPAQSCGILQGLSDCVCDTRGTTAHRSD [KIATER] | 0.06373 ± 0.00019 | 1.25 ± 0.078 | 0.0603 ± 0.0035
12 | MNIQIGELAKRTACPVVTIRFYEQEGLLPPPGRSRGNFRLYGEEHVERLQFIRHCRSLDMPLSDVRTLLSYRKRPDQDCGEVFMLLDEHARQVESRIGALLELVHALVELREACSGARPAQSCGILQGLSDCVCDTRGTTAHPSD [DFAVAP] | 0.0435 ± 0.0045 | 0.0535 ± 0.0046 | 0.0484 ± 0.0012
13 | MNIQIGELAKRTACPVVTIRFYEQEGLLPPPGRSRGNFRLYGEEHVERLQFIRHCRSLDMPLSKVRTLLSYRKRPDQDCGEVNMLLDEHARQVESRIGALLELTHALVELREACSGARPAQSCGILQGLSDCVCDTRGTTAHTSD [KNATAT] | 0.0532 ± 0.0029 | 0.305 ± 0.021 | 0.514 ± 0.057
14 | MNIQIGELAKRTACPVVTIRFYEQEGLLPPPGRSRGNFRLYGEEHVERLQFIRHCRSLDMPLSKVRTLLSYRKRPDQDCGEVNMLLDEHARQVESRIGALLELVHHLVELREACSGARPAQSCGILQGLSDCVCDTRGTTAHRSD [KNAVHR] | 0.0557 ± 0.0039 | 0.37 ± 0.021 | 0.644 ± 0.054
